Publication PMC2660430

B1: PfTrx1 (wild type thioredoxin) [P. falciparum] / PfSAHH (recombinant S-adenosyl-L-homocysteine hydrolase) [P. falciparum strain 3D7] (parent)
chain 1: MVKIVTSQAEFDSIISQNELVIVDFFAEWCGPCKRIAPFYEECSKTYTKMVFIKVDVDEVSEVTEKENITSMPTFKVYKNGSSVDTLLGANDSALKQLIEKYAA
chain 2: MVENKSKVKDISLAPFGKMQMEISENEMPGLMRIREEYGKDQPLKNAKITGCLHMTVECALLIETLQKLGAQIRWCSCNIYSTADYAAAAVSTLENVTVFAWKNETLEEYWWCVESALTWGDGDDNGPDMIVDDGGDATLLVHKGVEYEKLYEEKNILPDPEKAKNEEERCFLTLLKNSILKNPKKWTNIAKKIIGVSEETTTGVLRLKKMDKQNELLFTAINVNDAVTKQKYDNVYGCRHSLPDGLMRATDFLISGKIVVICGYGDVGKGCASSMKGLGARVYITEIDPICAIQAVMEGFNVVTLDEIVDKGDFFITCTGNVDVIKLEHLLKMKNNAVVGNIGHFDDEIQVNELFNYKGIHIENVKPQVDRITLPNGNKIIVLARGRLLNLGCATGHPAFVMSFSFCNQTFAQLDLWQNKDTNKYENKVYLLPKHLDEKVALYHLKKLNASLTELDDNQCQFLGVNKSGPFKSNEYRY
B2: Plrx (wild type plasmoredoxin, recombinant) [P. falciparum] / PfSAHH (recombinant S-adenosyl-L-homocysteine hydrolase) [P. falciparum strain 3D7] (parent)
chain 1: MACQVDNPPKTYPNDKTAEYEKYANYMNYLYYYQNNELKKIDSSYFKDKYLGLFFGASWCKYCVTFIDSLNIFKKNFPNVEIIYIPFDRTYQEYQSFLKNTNFYALPFDNYLYICKKYQIKNLPSFMLITPNNNILVKDAAQLIKTDEYINNLKSLIKNYIIHPKTFQFNNRFFDLFRN
chain 2: B1 chain 2

Variants of: B1
Assay: SPR
Details: with PfSAHH (recombinant S-adenosyl-L-homocysteine hydrolase) [P. falciparum strain 3D7]; Maximum response at end of analyte injection; SAHH on the sensor surface oxidized with 0.5 mM DTNB; 30 µl of analyte, 10 µM in HBS buffer; pre-injection …; parent: 28; read off a plot

Q: With chain 1 C30S C33S as the variant, how does the response (RD (normalized)) read?
A: 21

Q: Which response (RD (normalized)) does the source give for chain 1 C33S here?
A: 97

Variants of: B2
Assay: SPR
Details: with PfSAHH (recombinant S-adenosyl-L-homocysteine hydrolase) [P. falciparum strain 3D7]; Maximum response at end of analyte injection; SAHH on the sensor surface oxidized with 0.5 mM DTNB; 30 µl of analyte, 10 µM in HBS buffer; pre-injection …; parent: 99; read off a plot

Q: Which response (RD (normalized)) does the source give for chain 1 C63S here?
A: 28
